The values that follow come from patent US8158579B2, “Fusion protein of an exendin to modified transferrin” (BioRexis Pharmaceutical Corporation, priority 2006, dated 2012).

In this test the target is T1, rat GLP-1 receptor (Rattus norvegicus, UniProt P32301).
T1 construct: expressed in transfected cells; host or cells: CHO (CHO-GLP-1R)
T1 sequence (P32301 22-463): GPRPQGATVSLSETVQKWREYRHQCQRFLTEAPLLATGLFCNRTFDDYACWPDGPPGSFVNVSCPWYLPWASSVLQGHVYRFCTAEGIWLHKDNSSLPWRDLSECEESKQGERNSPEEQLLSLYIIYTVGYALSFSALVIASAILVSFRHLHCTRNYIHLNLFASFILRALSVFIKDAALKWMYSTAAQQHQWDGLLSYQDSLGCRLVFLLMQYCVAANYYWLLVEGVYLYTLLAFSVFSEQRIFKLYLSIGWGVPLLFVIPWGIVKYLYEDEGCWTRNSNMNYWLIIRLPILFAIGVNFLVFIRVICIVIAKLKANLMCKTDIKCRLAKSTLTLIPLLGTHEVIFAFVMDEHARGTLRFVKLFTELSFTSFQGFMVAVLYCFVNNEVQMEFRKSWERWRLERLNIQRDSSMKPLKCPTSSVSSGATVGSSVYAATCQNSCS
Description: cAMP potency assay in CHO cells transfected with the rat GLP-1 receptor (CHO-GLP-1R). The test is classed as cell-based. As to conditions: cAMP accumulation in CHO-GLP-1R cells. Here is the method:
96-well tissue culture plates were seeded with CHO-GLP-1R cells and cultured overnight. The following day, the cells were rinsed with Krebs-Ringer buffer (KRB) and incubated in KRB containing the phosphodiesterase inhibitor 3-isobutyl-1-methylxanthine (IBMX, 2 mM) to inhibit intracellular enzymes that process cAMP. Serial dilutions of test compounds and controls were prepared in KRB/IBMX and triplicate wells of cells were inoculated with samples and controls. After incubation, individual sample lysates were then assayed to measure the increase in intracellular cAMP levels using a competition-based fluorescent immunoassay (CatchPoint® cAMP Fluorescent Assay Kit, Molecular Devices Corp., Sunnyvale, Calif.).
(In general: Cyclic AMP is a second messenger, typically raised through Gs and lowered through Gi signalling.)

B1: pREX0658: exendin-4(1-31) fragment fused via (PEAPTD)2 linker to mTf (SEQ ID NO: 17) (protein)
chain: HGEGTFTSDLSKQMEEEAVRLFIEWLKNGGPPEAPTDPEAPTDVPDKTVRWCAVSEHEATKCQSFRDHMKSVIPSDGPSVACVKKASYLDCIRAIAANEADAVTLDAGLVYDAYLAPNNLKPVVAEFYGSKEDPQTFYYAVAVVKKDSGFQMNQLRGKKSCHTGLGRSAGWNIPIGLLYCDLPEPRKPLEKAVANFFSGSCAPCADGTDFPQLCQLCPGCGCSTLNQYFGYSGAFKCLKDGAGDVAFVKHSTIFENLANKADRDQYELLCLDNTRKPVDEYKDCHLAQVPSHTVVARSMGGKEDLIWELLNQAQEHFGKDKSKEFQLFSSPHGKDLLFKDSAHGFLKVPPRMDAKMYLGYEYVTAIRNLREGTCPEAPTDECKPVKWCALSHHERLKCDEWSVNSVGKIECVSAETTEDCIAKIMNGEADAMSLDGGFVYIAGKCGLVPVLAENYNKADNCEDTPEAGYFAVAVVKKSASDLTWDNLKGKKSCHTAVGRTAGWNIPMGLLYNKINHCRFDEFFSEGCAPGSKKDSSLCKLCMGSGLNLCEPNNKEGYYGYTGAFRCLVEKGDVAFVKHQTVPQNTGGKNPDPWAKNLNEKDYELLCLDGTRKPVEEYANCHLARAPNHAVVTRKDKEACVHKILRQQQHLFGSNVADCSGNFCLFRSETKDLLFRDDTVCLAKLHDRNTYEKYLGEEYVKAVGNLRKCSTSSLLEACTFRRP
In general, EC50 refers to the midpoint of the concentration-response curve. Molecule B1 showed an EC50 of 330 pM.

B2: pREX0659: exendin-4(1-30) fragment fused via (PEAPTD)2 linker to mTf (SEQ ID NO: 17) (protein)
chain: HGEGTFTSDLSKQMEEEAVRLFIEWLKNGGPEAPTDPEAPTDVPDKTVRWCAVSEHEATKCQSFRDHMKSVIPSDGPSVACVKKASYLDCIRAIAANEADAVTLDAGLVYDAYLAPNNLKPVVAEFYGSKEDPQTFYYAVAVVKKDSGFQMNQLRGKKSCHTGLGRSAGWNIPIGLLYCDLPEPRKPLEKAVANFFSGSCAPCADGTDFPQLCQLCPGCGCSTLNQYFGYSGAFKCLKDGAGDVAFVKHSTIFENLANKADRDQYELLCLDNTRKPVDEYKDCHLAQVPSHTVVARSMGGKEDLIWELLNQAQEHFGKDKSKEFQLFSSPHGKDLLFKDSAHGFLKVPPRMDAKMYLGYEYVTAIRNLREGTCPEAPTDECKPVKWCALSHHERLKCDEWSVNSVGKIECVSAETTEDCIAKIMNGEADAMSLDGGFVYIAGKCGLVPVLAENYNKADNCEDTPEAGYFAVAVVKKSASDLTWDNLKGKKSCHTAVGRTAGWNIPMGLLYNKINHCRFDEFFSEGCAPGSKKDSSLCKLCMGSGLNLCEPNNKEGYYGYTGAFRCLVEKGDVAFVKHQTVPQNTGGKNPDPWAKNLNEKDYELLCLDGTRKPVEEYANCHLARAPNHAVVTRKDKEACVHKILRQQQHLFGSNVADCSGNFCLFRSETKDLLFRDDTVCLAKLHDRNTYEKYLGEEYVKAVGNLRKCSTSSLLEACTFRRP
B2 had an EC50 of 850 pM. Against the preceding molecule, the EC50 is about 2.6-fold higher.
